This passage reports stoichiometry N and Kd results from article PMC9961634.

For experiment [1], the target named is Beta vulgaris ssp. vulgaris phytoglobin type 1.2 (BvPgb1.2) (Beta vulgaris spp. vulgaris). Nature of the experiment: NMR 15N relaxation (rotational correlation time from R2/R1, ROTDIF, compared with HYDRONMR values for monomeric and dimeric structures); CN-bound BvPgb1.2, 1 mM protein in 50 mM MOPS pH 7.4, 8% D2O, 298 K, 14.1 T; monomer to dimer.
Experiment [2] has the same target. As to the kind of experiment: SEC; analytical size exclusion chromatography of the purified protein samples; conditions not given (ref. 23). A general note: In gel filtration, larger molecules generally elute earlier.
Experiment [3] concerns the target Hb1 (Oryza sativa) (UniProt O04986). The settings on record: cited from earlier work.

One may read the stoichiometry N as the number of molecules, sites or subunits per partner or assembly. What is called Kd is a measure of binding affinity in units of concentration.

For the substance “Beta vulgaris ssp. vulgaris phytoglobin type 1.2 (BvPgb1.2) (natural protein)”, the stoichiometry N in experiment [1] and in experiment [2] was 2 throughout.
Take Hb1 (from UniProt O04986): in experiment [3], the dissociation constant (Kd) is 86 µM.
